{"source": "paper PMC3519907", "about": "(PLoS Biology, 2012)", "proteins": {"B1": {"name": "ΔNC CLC-ec1 (domain or fragment, Escherichia coli, UniProt P37019 1-460, looked up)", "chain": "MRRRQLIRQLLERDKTPLAILFMAAVVGTLVGLAAVAFDKGVAWLQNQRMGALVHTADNYPLLLTVAFLCSAVLAMFGYFLVRKYAPEAGGSGIPEIEGALEDQRPVRWWRVLPVKFFGGLGTLGGGMVLGREGPTVQIGGNIGRMVLDIFRLKGDEARHTLLATGAAAGLAAAFNAPLAGILFIIEEMRPQFRYTLISIKAVFIGVIMSTIMYRIFNHEVALIDVGKLSDAPLNTLWLYLILGIIFGIFGPIFNKWVLGMQDLLHRVHGGNITKWVLMGGAIGGLCGLLGFVAPATSGGGFNLIPIATAGNFSMGMLVFIFVARVITTLLCFSSGAPGGIFAPMLALGTVLGTAFGMVAVELFPQYHLEAGTFAIAGMGALLAASIRAPLTGIILVLEMTDNYQLILPMIITGLGATLLAQFTGGKPLYSAILARTLAKQEAEQ", "notes": "CLC-ec1, Cl-/H+ antiporter of Escherichia coli; Homodimer in the crystal (chains A and B); also called trimmed construct; source: E. coli, purified in decylmaltoside (His-tag removed, Superdex 200 gel filtration)"}}, "biological_target": "the molecule itself", "test": "crystal structure; ΔNC-Fab complex 10-20 mg/mL, 25%-35% PEG400, 100 mM Ca-acetate or 300 mM KCl, pH 8.5-9.5, 22°C; dataset refined to 2.5 Å"}
{"protein": "B1", "values": [{"measurement": "binding result", "value": "binds"}]}
